Reference: patent US20240034816A1 (Sanofi, published 2024)

How the values were obtained:
human CD64 (human FcγRI) = biological target: T1, human CD64 (human FcγRI) (human, UniProt P12314 16-292, limits assumed); test: SPR, fit 1:1 Binding, Exp No 3
T1 construct: also called HuFcyRI

[1] = biological target: human neonatal Fc receptor (FcRn) (human, UniProt P55899 24-297; P61769 21-119); test: SPR, binding to huFcRn at pH 6.0
cynomolgus CD16 = biological target: T2, cynomolgus CD16 (cynomolgus, UniProt Q8SPW2 17-208); test: SPR, fit Two State Reaction, mean of 3 experiments
T2 construct: also called CyFcyRIII
T2 sequence (Q8SPW2 17-208): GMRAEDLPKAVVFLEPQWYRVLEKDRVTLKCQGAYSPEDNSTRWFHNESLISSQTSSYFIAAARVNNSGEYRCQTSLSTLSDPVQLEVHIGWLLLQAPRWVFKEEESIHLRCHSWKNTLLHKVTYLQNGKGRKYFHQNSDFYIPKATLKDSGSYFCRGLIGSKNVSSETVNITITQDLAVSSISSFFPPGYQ

[2] = biological target: T3, human CD16a (human FcγRIIIA), V isoform (human, UniProt P08637 17-208); test: SPR, fit Two State Reaction, mean of 3 experiments
T3 construct: also called HuFcyRIIIaV; CD16a (V176)
T3 sequence (P08637 17-208 F176V limits assumed): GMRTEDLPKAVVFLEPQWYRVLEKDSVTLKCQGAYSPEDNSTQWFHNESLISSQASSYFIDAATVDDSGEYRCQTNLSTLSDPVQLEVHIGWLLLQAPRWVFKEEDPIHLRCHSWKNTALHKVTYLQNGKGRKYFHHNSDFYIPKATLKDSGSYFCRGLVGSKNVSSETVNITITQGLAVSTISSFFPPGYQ

[3] = biological target: T4, recombinant human NKp46 extracellular domain (Gln22-Asn255) with C-terminal 6xHis tag (human, UniProt O76036 22-255); test: SPR (Biacore 8K), NKCE captured by anti-human Fc, antigen as analyte, 1:1 model; Experiment No 1
T4 construct: range 22-255; also called huNKp46
T4 sequence (O76036 other isoform, or with tags, fused parts or gaps limits assumed): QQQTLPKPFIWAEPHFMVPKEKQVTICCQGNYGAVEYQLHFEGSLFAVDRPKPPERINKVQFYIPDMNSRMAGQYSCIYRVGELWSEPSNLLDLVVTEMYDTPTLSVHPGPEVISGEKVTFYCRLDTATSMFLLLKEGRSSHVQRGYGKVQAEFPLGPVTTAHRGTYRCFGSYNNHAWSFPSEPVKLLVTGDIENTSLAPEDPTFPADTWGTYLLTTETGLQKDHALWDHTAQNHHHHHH
Procedure: (§1) Measurements were performed in multicycle kinetics experiments for each antibody using a Biacore 8K instrument. In each multicycle experiment the antibodies were captured via an anti-hum a Fc antibody immobilized on a series S CM5 sensor chip (human antibody capture kit, Cytiva, Uppsala, Catalog No. BR1008-39).
(§2) The antigens, diluted as described above (concentration range 0.1 nM to 50 nM), were injected at a flow rate of 60 μL/min for 240 sec followed by a dissociation phase of 400 sec. All analyte concentrations were run in duplicate together with multiple buffer blanks for double referencing. Regeneration of the capture surface was performed with regeneration solution (3 mol/L MgCl2) for 60 sec at 30 μL/min. Binding kinetics data were evaluated with the Biacore 8K Evaluation Software version 1.1.1.7442 using a 1:1 binding model with mass transport limitation.

[4] = biological target: T5, recombinant cynomolgus NKp46 extracellular domain with C-terminal Flag-M2 tag (cynomolgus, UniProt Q95JB9 22-254); test: as above
T5 construct: range 22-254; also called cyno NKp46; not shown: C-terminal Flag-M2 tag
T5 sequence (Q95JB9 22-254): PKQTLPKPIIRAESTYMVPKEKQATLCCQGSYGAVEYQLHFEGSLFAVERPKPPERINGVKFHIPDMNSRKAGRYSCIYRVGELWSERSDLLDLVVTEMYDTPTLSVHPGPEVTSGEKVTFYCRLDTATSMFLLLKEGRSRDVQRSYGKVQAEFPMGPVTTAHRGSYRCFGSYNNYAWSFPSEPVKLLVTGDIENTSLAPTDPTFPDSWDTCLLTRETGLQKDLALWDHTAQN
Procedure: as §1, §2

recombinant human BCMA [5] = biological target: T6, recombinant human BCMA (human, UniProt Q02223 1-54); test: as above
Procedure: as §1, §2

cyno BCMA (PPB-17990) [6] = biological target: T7, cyno BCMA (PPB-17990) (cynomolgus, UniProt A0A2K5UD97 1-53); test: as above
T7 construct: also called cynomolgus BCMA
T7 sequence (A0A2K5UD97 entry or part of it): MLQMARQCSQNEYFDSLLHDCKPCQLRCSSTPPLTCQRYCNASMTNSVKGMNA
Procedure: as §1, §2

[7] = biological target: T4, recombinant human NKp46 extracellular …; test: SPR (Biacore 8K), NKCE captured by anti-human Fc, antigen as analyte, 1:1 model; Experiment No 2
Procedure: as §1, §2

[8] = biological target: T5, recombinant cynomolgus NKp46 …; test: as above
Procedure: as §1, §2

recombinant human BCMA [9] = biological target: T6, recombinant human BCMA; test: as above
Procedure: as §1, §2

cyno BCMA (PPB-17990) [10] = biological target: T7, cyno BCMA (PPB-17990); test: as above
Procedure: as §1, §2

[11] = biological target: T4, recombinant human NKp46 extracellular …; test: SPR (Biacore 8K), NKCE captured by anti-human Fc, antigen as analyte, 1:1 model; mean of 3 experiments
Procedure: as §1, §2

[12] = biological target: T5, recombinant cynomolgus NKp46 …; test: as above
Procedure: as §1, §2

recombinant human BCMA [13] = biological target: T6, recombinant human BCMA; test: as above
Procedure: as §1, §2

cyno BCMA (PPB-17990) [14] = biological target: T7, cyno BCMA (PPB-17990); test: as above
Procedure: as §1, §2

[15] = biological target: T8, human BCMA on RPMI 8226 multiple myeloma cells (human, UniProt Q02223 1-184); test: flow cytometry titration on RPMI 8226 cells, detection with goat anti-human IgG Fcγ-PE, 4-parameter fit; mean of 5 independent titrations
T8 construct: whole, on cells; also called BCMA on RPMI cells
T8 sequence (looked up): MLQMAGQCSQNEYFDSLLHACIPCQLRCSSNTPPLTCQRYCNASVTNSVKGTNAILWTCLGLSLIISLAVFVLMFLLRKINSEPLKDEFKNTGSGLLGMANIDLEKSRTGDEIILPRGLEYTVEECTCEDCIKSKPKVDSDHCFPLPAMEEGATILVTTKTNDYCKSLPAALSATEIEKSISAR
Procedure: After staining, cells were resuspended in BD Cellfix and analyzed by flow cytometry. Parameters were recorded and analysed with FlowJo software. Staining EC50 values were calculated with GraphPad prism using 4 parameter logistics non-linear regression model.

T1 sequence (P12314 16-292 limits assumed): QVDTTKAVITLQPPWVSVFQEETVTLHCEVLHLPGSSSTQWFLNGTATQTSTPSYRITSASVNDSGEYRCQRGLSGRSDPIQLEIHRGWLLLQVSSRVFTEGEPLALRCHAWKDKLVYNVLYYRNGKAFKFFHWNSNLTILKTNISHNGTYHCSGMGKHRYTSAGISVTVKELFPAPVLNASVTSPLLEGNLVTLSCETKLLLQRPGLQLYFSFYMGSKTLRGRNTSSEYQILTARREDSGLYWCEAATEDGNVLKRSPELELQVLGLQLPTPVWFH
Sequence of human neonatal Fc receptor (FcRn) (P55899 24-297 limits assumed, chain 1 of 2): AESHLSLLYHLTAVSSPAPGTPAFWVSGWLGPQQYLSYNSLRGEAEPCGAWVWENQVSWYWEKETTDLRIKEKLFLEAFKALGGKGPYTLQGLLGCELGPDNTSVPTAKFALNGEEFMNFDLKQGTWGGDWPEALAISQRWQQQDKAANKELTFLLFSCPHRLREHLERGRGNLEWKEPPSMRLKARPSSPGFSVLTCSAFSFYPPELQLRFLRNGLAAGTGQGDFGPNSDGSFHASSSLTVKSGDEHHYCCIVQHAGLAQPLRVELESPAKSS
Sequence of human neonatal Fc receptor (FcRn) (P61769 21-119 limits assumed, chain 2 of 2): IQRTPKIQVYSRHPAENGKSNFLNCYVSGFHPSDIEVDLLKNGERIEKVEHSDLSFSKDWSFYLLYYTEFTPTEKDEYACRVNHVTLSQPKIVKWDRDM

B1: NKp46-BCMA_Fc-ADE-DSB NKCE (bispecific antibody, human IgG1, kappa)
light: QTVVTQEPSLTVSPGGTVTLTCASSTGTVTPSNYANWVQQKPGQAFRGLIGDNNSRPPGTPARFSASLLGGKAALTLSGVQPEDEAEYYCALWFGNQWVFGGGTKLTVLGGGGSGGGGSDIQMTQSPSSLSASVGDRVTITCRASQDISNYLNWYQQKPGKAPKLLIYYTSRLHSGVPSRFSGSGSGTDFTFTISSLQPEDIATYFCQQGNTRPWTFGGGTKVEIKGGGGSGGGGSRTVAAPSVFIFPPSDEQLKSGTASVVCLLNNFYPREAKVQWKVDNALQSGNSQESVTEQDSKDSTYSLSSTLTLSKADYEKHKVYACEVTHQGLSSPVTKSFNRGEC
heavy: QVQLVQSGAEVKKPGSSVKVSCKASGYTFSDYVINWVRQAPGQGLEWMGEIYPGSGTNYYNEKFKAKATITADKSTSTAYMELSSLRSEDTAVYYCARRGRYGLYAMDYWGQGTTVTVSSQVQLVESGGGVVQPGRSLRLSCAASGFTFSNFGMHWVRQAPGRGLEWVAVIWSDETNRYYADSVKGRFTVSRDNVKSTVYLQMNSLISEDTAVYYCARDQQYCSSDSCFTWFDPWGQGTLVTVSSASTKGPSVFPLAPSSKSTSGGTAALGCLVKDYFPEPVTVSWNSGALTSGVHTFPAVLQSSGLYSLSSVVTVPSSSLGTQTYICNVNHKPSNTKVDKKVEPKSCDKTHTCPPCPAPELLAGPDVFLFPPKPKDTLMISRTPEVTCVVVDVSHEDPEVKFNWYVDGVEVHNAKTKPCEEQYNSTYRCVSVLTVLHQDWLNGKEYKCKVSNKALPAPEEKTISKAKGQPREPQVYTLPPCRDELTKNQVSLWCLVKGFYPSDIAVEWESNGQPENNYKTTPPVLDSDGSFFLYSKLTVDKSRWQQGNVFSCSVMHEALHNHYTQKSLSLSPG
chain: DKTHTCPPCPAPELLAGPDVFLFPPKPKDTLMISRTPEVTCVVVDVSHEDPEVKFNWYVDGVEVHNAKTKPCEEQYNSTYRCVSVLTVLHQDWLNGKEYKCKVSNKALPAPEEKTISKAKGQPREPQVCTLPPSRDELTKNQVSLSCAVKGFYPSDIAVEWESNGQPENNYKTTPPVLDSDGSFFLVSKLTVDKSRWQQGNVFSCSVMHEALHNRFTQKSLSLSPG
**Q.** For B1, which Kd (human CD64 (human FcγRI)) is on record?
**A.** Its Kd is 0.38 nM.

**Q.** What about the Kd [1] of the same binder?
**A.** Its Kd is 756 nM.

**Q.** What about the Kd (cynomolgus CD16) of the same binder?
**A.** The Kd was 11.7 nM.

**Q.** What about the Kd [2] of the same binder?
**A.** The Kd was 13.4 nM.

**Q.** What about the Kd [3] of the same binder?
**A.** The Kd was 11.8 nM.

**Q.** What about the koff [3] of the same binder?
**A.** Its koff is 0.0019 s⁻¹.

**Q.** And the kon [3]?
**A.** Its kon is 160000 M⁻¹ s⁻¹.

**Q.** And the Kd [4]?
**A.** Its Kd is 16.6 nM.

**Q.** What about the koff [4] of the same binder?
**A.** The koff was 0.003 s⁻¹.

**Q.** What about the kon [4] of the same binder?
**A.** The kon was 210000 M⁻¹ s⁻¹.

**Q.** What about the Kd (recombinant human BCMA [5]) of the same binder?
**A.** Its Kd is 0.2 nM.

**Q.** What about the koff (recombinant human BCMA [5]) of the same binder?
**A.** Its koff is 6.1e-05 s⁻¹.

**Q.** And the kon (recombinant human BCMA [5])?
**A.** Its kon is 280000 M⁻¹ s⁻¹.

**Q.** And the Kd (cyno BCMA (PPB-17990) [6])?
**A.** Its Kd is 0.4 nM.

**Q.** What about the koff (cyno BCMA (PPB-17990) [6]) of the same binder?
**A.** The koff was 7.2e-05 s⁻¹.

**Q.** And the kon (cyno BCMA (PPB-17990) [6])?
**A.** Its kon is 170000 M⁻¹ s⁻¹.

**Q.** And the Kd [7]?
**A.** Its Kd is 13.2 nM.

**Q.** And the koff [7]?
**A.** The koff was 0.0018 s⁻¹.

**Q.** What about the kon [7] of the same binder?
**A.** Its kon is 140000 M⁻¹ s⁻¹.

**Q.** What about the Kd [8] of the same binder?
**A.** Its Kd is 16.2 nM.

**Q.** What about the koff [8] of the same binder?
**A.** Its koff is 0.0034 s⁻¹.

**Q.** What about the kon [8] of the same binder?
**A.** The kon was 210000 M⁻¹ s⁻¹.

**Q.** What about the Kd (recombinant human BCMA [9]) of the same binder?
**A.** Its Kd is 0.2 nM.

**Q.** What about the koff (recombinant human BCMA [9]) of the same binder?
**A.** The koff was 6.9e-05 s⁻¹.

**Q.** What about the kon (recombinant human BCMA [9]) of the same binder?
**A.** The kon was 320000 M⁻¹ s⁻¹.

**Q.** What about the Kd (cyno BCMA (PPB-17990) [10]) of the same binder?
**A.** Its Kd is 0.3 nM.

**Q.** And the koff (cyno BCMA (PPB-17990) [10])?
**A.** Its koff is 5.8e-05 s⁻¹.

**Q.** What about the kon (cyno BCMA (PPB-17990) [10]) of the same binder?
**A.** The kon was 180000 M⁻¹ s⁻¹.

**Q.** And the Kd [11]?
**A.** Its Kd is 12.5 nM.

**Q.** What about the Kd [12] of the same binder?
**A.** Its Kd is 16.9 nM.

**Q.** What about the Kd (recombinant human BCMA [13]) of the same binder?
**A.** The Kd was 0.2 nM.

**Q.** What about the Kd (cyno BCMA (PPB-17990) [14]) of the same binder?
**A.** The Kd was 0.3 nM.

**Q.** And the EC50 [15]?
**A.** The EC50 was 1.33 µg/mL.
